{
  "source": "paper PMC10786891",
  "about": "“Massively parallel profiling of RNA-targeting CRISPR-Cas13d”",
  "data": [
    {"biological_target": "T1, EsCas13d, nuclease-dead (Eubacterium siraeum, UniProt B0MS50, R295A;H300A;R849A;H854A)", "T1 sequence": "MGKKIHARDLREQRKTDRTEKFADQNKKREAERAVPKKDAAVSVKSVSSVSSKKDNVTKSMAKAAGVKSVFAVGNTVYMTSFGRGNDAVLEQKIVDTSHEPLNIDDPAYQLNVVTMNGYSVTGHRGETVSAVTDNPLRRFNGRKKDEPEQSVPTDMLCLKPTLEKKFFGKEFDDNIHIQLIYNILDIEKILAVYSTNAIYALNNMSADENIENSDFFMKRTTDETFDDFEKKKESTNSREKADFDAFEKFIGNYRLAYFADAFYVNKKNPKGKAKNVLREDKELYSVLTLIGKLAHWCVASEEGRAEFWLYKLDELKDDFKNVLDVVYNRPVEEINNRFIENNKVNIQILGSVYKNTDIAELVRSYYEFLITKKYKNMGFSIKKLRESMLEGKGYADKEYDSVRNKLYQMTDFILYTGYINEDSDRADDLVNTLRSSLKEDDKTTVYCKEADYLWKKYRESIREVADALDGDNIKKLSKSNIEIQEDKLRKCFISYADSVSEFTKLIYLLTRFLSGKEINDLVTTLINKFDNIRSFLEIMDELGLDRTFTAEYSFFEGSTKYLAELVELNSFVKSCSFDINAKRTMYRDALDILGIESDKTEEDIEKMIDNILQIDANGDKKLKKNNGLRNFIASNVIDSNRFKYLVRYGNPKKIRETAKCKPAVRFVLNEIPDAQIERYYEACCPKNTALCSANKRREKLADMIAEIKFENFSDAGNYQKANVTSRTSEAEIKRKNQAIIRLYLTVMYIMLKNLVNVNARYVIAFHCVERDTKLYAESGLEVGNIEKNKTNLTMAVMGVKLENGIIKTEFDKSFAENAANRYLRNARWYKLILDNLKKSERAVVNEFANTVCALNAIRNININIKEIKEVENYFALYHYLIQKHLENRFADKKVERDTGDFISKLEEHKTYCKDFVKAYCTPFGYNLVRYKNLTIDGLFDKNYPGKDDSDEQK", "assay": "crRNA (strand 1, pre-loaded); Mg2+; 40 mM Tris-HCl pH 7.5, 150 mM NaCl, 6 mM MgCl2, 1 mM DTT, 0.1% Tween-20, 0.2 mg/ml BSA; 25 C; 10 min per concentration, then washed", "details": "tags: His6-TwinStrep-SUMO cleaved; N-terminal SNAP kept (SNAP-Surface 488); label: 3' end held by stalled T7 RNA polymerase", "units": {"Kd": "nM"}, "values": [
      {"binder": "target 1 MT 5'PFS UAG 3'PFS AUU (mixed) RNA 1: CACCCGUGCAAAAAUGCAGGGGUCUAAAACUGAGCGGAUAACCUCUCUAUGG RNA 2: GGGAAUGGAUCCACAUCUACGAAUUCUAGCCAUAGAGAGGUUAUCCGCUCAAUUAGAUCGGAAGAGCACACGU", "Kd": "31.6 ± 4.7"},
      {"binder": "target 1 MT 5'PFS GUA 3'PFS GAG (mixed) RNA 1: CACCCGUGCAAAAAUGCAGGGGUCUAAAACUGAGCGGAUAACCUCUCUAUGG RNA 2: GGGAAUGGAUCCACAUCUACGAAUUCGUACCAUAGAGAGGUUAUCCGCUCAGAGAGAUCGGAAGAGCACACGU", "Kd": "16.1 ± 2.3"},
      {"binder": "target 1 MT 5'PFS GUA 3'PFS GAA (mixed) RNA 1: CACCCGUGCAAAAAUGCAGGGGUCUAAAACUGAGCGGAUAACCUCUCUAUGG RNA 2: GGGAAUGGAUCCACAUCUACGAAUUCGUACCAUAGAGAGGUUAUCCGCUCAGAAAGAUCGGAAGAGCACACGU", "Kd": "11.8 ± 1.3"},
      {"binder": "target 1 MT 5'PFS GUA 3'PFS GAC (mixed) RNA 1: CACCCGUGCAAAAAUGCAGGGGUCUAAAACUGAGCGGAUAACCUCUCUAUGG RNA 2: GGGAAUGGAUCCACAUCUACGAAUUCGUACCAUAGAGAGGUUAUCCGCUCAGACAGAUCGGAAGAGCACACGU", "Kd": "14.3 ± 3.05"},
      {"binder": "target 1 MT 5'PFS UAG 3'PFS AUG (mixed) RNA 1: CACCCGUGCAAAAAUGCAGGGGUCUAAAACUGAGCGGAUAACCUCUCUAUGG RNA 2: GGGAAUGGAUCCACAUCUACGAAUUCUAGCCAUAGAGAGGUUAUCCGCUCAAUGAGAUCGGAAGAGCACACGU", "Kd": "46.5 ± 9"},
      {"binder": "target 1 MT 5'PFS UAG 3'PFS AUC (mixed) RNA 1: CACCCGUGCAAAAAUGCAGGGGUCUAAAACUGAGCGGAUAACCUCUCUAUGG RNA 2: GGGAAUGGAUCCACAUCUACGAAUUCUAGCCAUAGAGAGGUUAUCCGCUCAAUCAGAUCGGAAGAGCACACGU", "Kd": "32 ± 9"},
      {"binder": "target 1 MT 5'PFS UAG 3'PFS AUA (mixed) RNA 1: CACCCGUGCAAAAAUGCAGGGGUCUAAAACUGAGCGGAUAACCUCUCUAUGG RNA 2: GGGAAUGGAUCCACAUCUACGAAUUCUAGCCAUAGAGAGGUUAUCCGCUCAAUAAGAUCGGAAGAGCACACGU", "Kd": "31.3 ± 4.95"},
      {"binder": "target 1 MT 5'PFS UUU 3'PFS AGC (mixed) RNA 1: CACCCGUGCAAAAAUGCAGGGGUCUAAAACUGAGCGGAUAACCUCUCUAUGG RNA 2: GGGAAUGGAUCCACAUCUACGAAUUCUUUCCAUAGAGAGGUUAUCCGCUCAAGCAGAUCGGAAGAGCACACGU", "Kd": "68 ± 27.5"},
      {"binder": "target 1 U8A,A9U (mixed) RNA 1: CACCCGUGCAAAAAUGCAGGGGUCUAAAACUGAGCGGAUAACCUCUCUAUGG RNA 2: GGGAAUGGAUCCACAUCUACGAAUUCGUACCAUAGAGAGGUUUACCGCUCACCGAGAUCGGAAGAGCACACGU", "Kd": "12.9 ± 0.8"},
      {"binder": "target 1 MT 5'PFS GUC 3'PFS AUG (mixed) RNA 1: CACCCGUGCAAAAAUGCAGGGGUCUAAAACUGAGCGGAUAACCUCUCUAUGG RNA 2: GGGAAUGGAUCCACAUCUACGAAUUCGUCCCAUAGAGAGGUUAUCCGCUCAAUGAGAUCGGAAGAGCACACGU", "Kd": "24.5 ± 4"},
      {"binder": "target 1 MT 5'PFS GUC 3'PFS AUC (mixed) RNA 1: CACCCGUGCAAAAAUGCAGGGGUCUAAAACUGAGCGGAUAACCUCUCUAUGG RNA 2: GGGAAUGGAUCCACAUCUACGAAUUCGUCCCAUAGAGAGGUUAUCCGCUCAAUCAGAUCGGAAGAGCACACGU", "Kd": "28.5 ± 11"},
      {"binder": "target 1 MT 5'PFS GUC 3'PFS AUA (mixed) RNA 1: CACCCGUGCAAAAAUGCAGGGGUCUAAAACUGAGCGGAUAACCUCUCUAUGG RNA 2: GGGAAUGGAUCCACAUCUACGAAUUCGUCCCAUAGAGAGGUUAUCCGCUCAAUAAGAUCGGAAGAGCACACGU", "Kd": "26 ± 7"},
      {"binder": "target 1 MT 5'PFS GUC 3'PFS UUC (mixed) RNA 1: CACCCGUGCAAAAAUGCAGGGGUCUAAAACUGAGCGGAUAACCUCUCUAUGG RNA 2: GGGAAUGGAUCCACAUCUACGAAUUCGUCCCAUAGAGAGGUUAUCCGCUCAUUCAGAUCGGAAGAGCACACGU", "Kd": "19.1 ± 4.5"},
      {"binder": "target 1 MT 5'PFS GUC 3'PFS AUU (mixed) RNA 1: CACCCGUGCAAAAAUGCAGGGGUCUAAAACUGAGCGGAUAACCUCUCUAUGG RNA 2: GGGAAUGGAUCCACAUCUACGAAUUCGUCCCAUAGAGAGGUUAUCCGCUCAAUUAGAUCGGAAGAGCACACGU", "Kd": "16.1 ± 2.15"},
      {"binder": "target 1 MT 5'PFS GUC 3'PFS UUG (mixed) RNA 1: CACCCGUGCAAAAAUGCAGGGGUCUAAAACUGAGCGGAUAACCUCUCUAUGG RNA 2: GGGAAUGGAUCCACAUCUACGAAUUCGUCCCAUAGAGAGGUUAUCCGCUCAUUGAGAUCGGAAGAGCACACGU", "Kd": "11.9 ± 1.75"},
      {"binder": "target 1 MT 5'PFS CUA 3'PFS UAC (mixed) RNA 1: CACCCGUGCAAAAAUGCAGGGGUCUAAAACUGAGCGGAUAACCUCUCUAUGG RNA 2: GGGAAUGGAUCCACAUCUACGAAUUCCUACCAUAGAGAGGUUAUCCGCUCAUACAGAUCGGAAGAGCACACGU", "Kd": "~3.9"},
      {"binder": "target 1 MT 5'PFS GCA 3'PFS CAU (mixed) RNA 1: CACCCGUGCAAAAAUGCAGGGGUCUAAAACUGAGCGGAUAACCUCUCUAUGG RNA 2: GGGAAUGGAUCCACAUCUACGAAUUCGCACCAUAGAGAGGUUAUCCGCUCACAUAGAUCGGAAGAGCACACGU", "Kd": "35 ± 11"},
      {"binder": "target 1 MT 5'PFS CUA 3'PFS UAA (mixed) RNA 1: CACCCGUGCAAAAAUGCAGGGGUCUAAAACUGAGCGGAUAACCUCUCUAUGG RNA 2: GGGAAUGGAUCCACAUCUACGAAUUCCUACCAUAGAGAGGUUAUCCGCUCAUAAAGAUCGGAAGAGCACACGU", "Kd": "6 ± 1.3"},
      {"binder": "target 1 MT 5'PFS CUA 3'PFS UAG (mixed) RNA 1: CACCCGUGCAAAAAUGCAGGGGUCUAAAACUGAGCGGAUAACCUCUCUAUGG RNA 2: GGGAAUGGAUCCACAUCUACGAAUUCCUACCAUAGAGAGGUUAUCCGCUCAUAGAGAUCGGAAGAGCACACGU", "Kd": "4.9 ± 0.9"},
      {"binder": "target 1 U3C,C4G (mixed) RNA 1: CACCCGUGCAAAAAUGCAGGGGUCUAAAACUGAGCGGAUAACCUCUCUAUGG RNA 2: GGGAAUGGAUCCACAUCUACGAAUUCGUACCAUAGAGAGGUUAUCCGGCCACCGAGAUCGGAAGAGCACACGU", "Kd": "11.4 ± 0.6"},
      {"binder": "target 1 MT 5'PFS GCA 3'PFS CAG (mixed) RNA 1: CACCCGUGCAAAAAUGCAGGGGUCUAAAACUGAGCGGAUAACCUCUCUAUGG RNA 2: GGGAAUGGAUCCACAUCUACGAAUUCGCACCAUAGAGAGGUUAUCCGCUCACAGAGAUCGGAAGAGCACACGU", "Kd": "~36.5"},
      {"binder": "target 1 MT 5'PFS GCA 3'PFS CAA (mixed) RNA 1: CACCCGUGCAAAAAUGCAGGGGUCUAAAACUGAGCGGAUAACCUCUCUAUGG RNA 2: GGGAAUGGAUCCACAUCUACGAAUUCGCACCAUAGAGAGGUUAUCCGCUCACAAAGAUCGGAAGAGCACACGU", "Kd": "~32.5"},
      {"binder": "target 1 MT 5'PFS CAG 3'PFS ACC (mixed) RNA 1: CACCCGUGCAAAAAUGCAGGGGUCUAAAACUGAGCGGAUAACCUCUCUAUGG RNA 2: GGGAAUGGAUCCACAUCUACGAAUUCCAGCCAUAGAGAGGUUAUCCGCUCAACCAGAUCGGAAGAGCACACGU", "Kd": "24 ± 11.5"},
      {"binder": "target 1 MT 5'PFS CAG 3'PFS ACA (mixed) RNA 1: CACCCGUGCAAAAAUGCAGGGGUCUAAAACUGAGCGGAUAACCUCUCUAUGG RNA 2: GGGAAUGGAUCCACAUCUACGAAUUCCAGCCAUAGAGAGGUUAUCCGCUCAACAAGAUCGGAAGAGCACACGU", "Kd": "31 ± 15.5"},
      {"binder": "target 1 MT 5'PFS CAG 3'PFS ACG (mixed) RNA 1: CACCCGUGCAAAAAUGCAGGGGUCUAAAACUGAGCGGAUAACCUCUCUAUGG RNA 2: GGGAAUGGAUCCACAUCUACGAAUUCCAGCCAUAGAGAGGUUAUCCGCUCAACGAGAUCGGAAGAGCACACGU", "Kd": "19.5 ± 5.15"},
      {"binder": "target 1 MT 5'PFS CUA 3'PFS AGU (mixed) RNA 1: CACCCGUGCAAAAAUGCAGGGGUCUAAAACUGAGCGGAUAACCUCUCUAUGG RNA 2: GGGAAUGGAUCCACAUCUACGAAUUCCUACCAUAGAGAGGUUAUCCGCUCAAGUAGAUCGGAAGAGCACACGU", "Kd": "12.2 ± 3.65"},
      {"binder": "target 1 MT 5'PFS GUA 3'PFS UCU (mixed) RNA 1: CACCCGUGCAAAAAUGCAGGGGUCUAAAACUGAGCGGAUAACCUCUCUAUGG RNA 2: GGGAAUGGAUCCACAUCUACGAAUUCGUACCAUAGAGAGGUUAUCCGCUCAUCUAGAUCGGAAGAGCACACGU", "Kd": "8.3 ± 0.95"},
      {"binder": "target 1 MT 5'PFS CUA 3'PFS AGG (mixed) RNA 1: CACCCGUGCAAAAAUGCAGGGGUCUAAAACUGAGCGGAUAACCUCUCUAUGG RNA 2: GGGAAUGGAUCCACAUCUACGAAUUCCUACCAUAGAGAGGUUAUCCGCUCAAGGAGAUCGGAAGAGCACACGU", "Kd": "41 ± 19"}
    ]}
  ]
}
